Experimental findings from PMC9753469 (2022) are described below.

One may read the koff as the rate constant with which the complex falls apart. By Kd is commonly meant the concentration at which binding is half-saturated.

The labels stand for the following.
B2: MBP-KRAB (ZNF93 KRAB E35R) (domain or fragment)
chain: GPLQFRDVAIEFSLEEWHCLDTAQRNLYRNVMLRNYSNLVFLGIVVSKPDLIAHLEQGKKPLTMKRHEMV
B3: MBP-KRAB (ZNF93 KRAB, wild type) (domain or fragment)
chain: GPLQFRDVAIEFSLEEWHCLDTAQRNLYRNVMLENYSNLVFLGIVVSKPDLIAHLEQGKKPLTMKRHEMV

The target in assay [1] is B3. Put plainly: SPR; minor phase.
For assay [2], the target named is B3. Put plainly: SPR; minor phase. The source holds these as a separate data set. A general note: In SPR one partner is held on a chip, and binding of the other changes the refractive index at the surface.
The target in assay [3] is B2. Put plainly: SPR; minor phase.
In assay [4] the target is B3. Put plainly: SPR; major phase.
In assay [5] the target is B2. Put plainly: SPR; major phase.
Assay [6] has as its target T1, KAP1 RBCC R311E, SPR analyte (human (by the printed UniProt entry), UniProt Q13263 1-835, R311E). The assay is described as follows: SPR; minor phase.
In assay [7] the target is T1, KAP1 RBCC R311E, SPR analyte. The assay is described as follows: SPR; major phase.
For assay [8] the target is unchanged. Put plainly: SPR; major phase. The source holds these as a separate data set.
The target is the same in assay [9]. Put plainly: SPR.

B1: KAP1 RBCC (wild type), SPR analyte (domain or fragment)
chain: SPAGGGAEALELLEHCGVCRERLRPEREPRLLPCLHSACSACLGPAAPAAANSSGDGGAAGDGTVVDCPVCKQQCFSKDIVENYFMRDSGSKAATDAQDANQCCTSCEDNAPATSYCVECSEPLCETCVEAHQRVKYTKDHTVRSTGPAKSRDGERTVYCNVHKHEPLVLFCESCDTLTCRDCQLNAHKDHQYQFLEDAVRNQRKLLASLVKRLGDKHATLQKSTKEVRSSIRQVSDVQKRVQVDVKMAILQIMKELNKRGRVLVNDAQKVTEGQQERLERQHWTMTKIQKHQEHILRFASWALESDNNTALLLSKKLIYFQLHRALKMIVDPVEPHGEMKFQWDLNAWTKSAEAFGKIVAERP
For B1, the koff in [1] was 0.0061 s⁻¹; in [4], 0.000232 s⁻¹; in assay [5], 0.008 s⁻¹. For the same molecule, the Kd is 19 µM in [2] and 47 µM in assay [3].
The molecule B2 displayed a Kd in assay [6] of 35.6 µM. Moreover, in assay [7], the koff was determined as 0.0037 s⁻¹.
For the molecule B3, the Kd came to 2 µM in assay [6], 0.029 µM in assay [8] and 0.029 µM in assay [9]. Further, the koff in assay [7] came to 0.00083 s⁻¹.
